Data set [1] in a line: western blot of total lysate, COS-7. Conditions: glycan lost; control: WT Vstm5. In general terms: A western blot detects proteins with antibodies after separation by electrophoresis.
Data set [2] can be described thus: surface biotinylation, pull-down, western, COS-7. Conditions: glycan lost; control: WT Vstm5.
Data set [3] in a line: immunofluorescence with ER marker PDI, COS-7. Conditions: glycan lost.

B1: V-set and transmembrane domain-containing protein 5 (Vstm5): N43,87,101,108A (protein)
parent chain: MRPLRCGERTQGIPLGLLAFWVTAARCLQSQGVSLYIPQSAINATVQQDILLSVDYICHGVPTIEWKYTPNWGVQRIVEWKPGTPANVSQSHRDRVCTFDNGSIQLFNVSVKDSGYYIVTVTEHPGSSQSGTILLRVSEIRYEDLHFVAVFFALLAAVAVVLISLMWVCNQCAYKFQRKRRYKLKESTTEEIEMKEVEC
On to B1, for which, in data set [1], the expression_or_secretion entry is reported as “no change”. The “localisation_or_trafficking, fold_change” value in data set [2] is “decreases”. Moreover, the localisation_or_trafficking entry in data set [3] (control: WT Vstm5) is on record as “changes”.

B2: V-set and transmembrane domain-containing protein 5 (Vstm5): N101,108A (protein)
parent chain: MRPLRCGERTQGIPLGLLAFWVTAARCLQSQGVSLYIPQSAINATVQQDILLSVDYICHGVPTIEWKYTPNWGVQRIVEWKPGTPANVSQSHRDRVCTFDNGSIQLFNVSVKDSGYYIVTVTEHPGSSQSGTILLRVSEIRYEDLHFVAVFFALLAAVAVVLISLMWVCNQCAYKFQRKRRYKLKESTTEEIEMKEVEC
For the protein B2, the expression_or_secretion result in data set [1] was “no change”. Moreover, the “localisation_or_trafficking, fold_change” value in data set [2] is listed as “no change”.

B3: V-set and transmembrane domain-containing protein 5 (Vstm5): N43A (protein)
parent chain: MRPLRCGERTQGIPLGLLAFWVTAARCLQSQGVSLYIPQSAINATVQQDILLSVDYICHGVPTIEWKYTPNWGVQRIVEWKPGTPANVSQSHRDRVCTFDNGSIQLFNVSVKDSGYYIVTVTEHPGSSQSGTILLRVSEIRYEDLHFVAVFFALLAAVAVVLISLMWVCNQCAYKFQRKRRYKLKESTTEEIEMKEVEC
Consider B3, for which the expression_or_secretion result in data set [1] is on record as “no change”. Further, the “localisation_or_trafficking, fold_change” value in data set [2] was “decreases”.

B4: V-set and transmembrane domain-containing protein 5 (Vstm5): N101A (protein)
parent chain: MRPLRCGERTQGIPLGLLAFWVTAARCLQSQGVSLYIPQSAINATVQQDILLSVDYICHGVPTIEWKYTPNWGVQRIVEWKPGTPANVSQSHRDRVCTFDNGSIQLFNVSVKDSGYYIVTVTEHPGSSQSGTILLRVSEIRYEDLHFVAVFFALLAAVAVVLISLMWVCNQCAYKFQRKRRYKLKESTTEEIEMKEVEC
As to B4, the expression_or_secretion entry in data set [1] is “no change”. Moreover, the “localisation_or_trafficking, fold_change” value in data set [2] is “decreases”.

B5: V-set and transmembrane domain-containing protein 5 (Vstm5): N87,101,108A (protein)
parent chain: MRPLRCGERTQGIPLGLLAFWVTAARCLQSQGVSLYIPQSAINATVQQDILLSVDYICHGVPTIEWKYTPNWGVQRIVEWKPGTPANVSQSHRDRVCTFDNGSIQLFNVSVKDSGYYIVTVTEHPGSSQSGTILLRVSEIRYEDLHFVAVFFALLAAVAVVLISLMWVCNQCAYKFQRKRRYKLKESTTEEIEMKEVEC
For the protein B5, in data set [1], the expression_or_secretion result is “no change”. The “localisation_or_trafficking, fold_change” value in data set [2] was “decreases”.

B6: V-set and transmembrane domain-containing protein 5 (Vstm5): N87A (protein)
parent chain: MRPLRCGERTQGIPLGLLAFWVTAARCLQSQGVSLYIPQSAINATVQQDILLSVDYICHGVPTIEWKYTPNWGVQRIVEWKPGTPANVSQSHRDRVCTFDNGSIQLFNVSVKDSGYYIVTVTEHPGSSQSGTILLRVSEIRYEDLHFVAVFFALLAAVAVVLISLMWVCNQCAYKFQRKRRYKLKESTTEEIEMKEVEC
Turning to B6, in data set [1], the expression_or_secretion entry is reported as “no change”. Also, the “localisation_or_trafficking, fold_change” value in data set [2] is listed as “increases”.

B7: V-set and transmembrane domain-containing protein 5 (Vstm5): tunicamycin (protein)
parent chain: MRPLRCGERTQGIPLGLLAFWVTAARCLQSQGVSLYIPQSAINATVQQDILLSVDYICHGVPTIEWKYTPNWGVQRIVEWKPGTPANVSQSHRDRVCTFDNGSIQLFNVSVKDSGYYIVTVTEHPGSSQSGTILLRVSEIRYEDLHFVAVFFALLAAVAVVLISLMWVCNQCAYKFQRKRRYKLKESTTEEIEMKEVEC
Consider B7, for which, in data set [3] (control: DMSO-treated), the localisation_or_trafficking result is “changes”.

B8: V-set and transmembrane domain-containing protein 5 (Vstm5): N108A (protein)
parent chain: MRPLRCGERTQGIPLGLLAFWVTAARCLQSQGVSLYIPQSAINATVQQDILLSVDYICHGVPTIEWKYTPNWGVQRIVEWKPGTPANVSQSHRDRVCTFDNGSIQLFNVSVKDSGYYIVTVTEHPGSSQSGTILLRVSEIRYEDLHFVAVFFALLAAVAVVLISLMWVCNQCAYKFQRKRRYKLKESTTEEIEMKEVEC
Regarding B8, the expression_or_secretion entry in data set [1] was “no change”. In addition, the “localisation_or_trafficking, fold_change” value in data set [2] is on record as “increases”.

B9: V-set and transmembrane domain-containing protein 5 (Vstm5): N43,87A (protein)
parent chain: MRPLRCGERTQGIPLGLLAFWVTAARCLQSQGVSLYIPQSAINATVQQDILLSVDYICHGVPTIEWKYTPNWGVQRIVEWKPGTPANVSQSHRDRVCTFDNGSIQLFNVSVKDSGYYIVTVTEHPGSSQSGTILLRVSEIRYEDLHFVAVFFALLAAVAVVLISLMWVCNQCAYKFQRKRRYKLKESTTEEIEMKEVEC
B9: the expression_or_secretion result in data set [1] is recorded as “no change”. Further, in data set [2], the “localisation_or_trafficking, fold_change” value was “decreases”.

The record behind these values is PMC5528877.
